Laboratory results published in patent US20240200091A1, “USE OF PROTOPORPHYRINOGEN OXIDASE” (BEIJING DABEINONG BIOTECHNOLOGY CO., LTD., priority 2021, published 2024).

Experiments:
Assay type in all cases: in vivo
Settings in all cases: for The grade of pesticide damage/plant: number of plants of grade 0 / The grade of pesticide damage/plant: number of plants of grade 1 / The grade of pesticide damage/plant: number of plants of grade 2 / The grade of pesticide damage/plant: number of plants of grade 3: 7 DAT, 16 maize plants per genotype
[1] = test system: transgenic maize plants; assay: oxyfluorfen tolerance of transgenic maize plants (spray, grade of pesticide damage)
[2] = test system: transgenic maize plants; assay: saflufenacil tolerance of transgenic maize plants (spray, grade of pesticide damage)
[3] = test system: transgenic maize plants; assay: flumioxazin tolerance of transgenic maize plants (spray, grade of pesticide damage)
[4] = oxyfluorfen 360 g ai/ha (2x field concentration)
[5] = oxyfluorfen 720 g ai/ha (4x field concentration)
[6] = saflufenacil 50 g ai/ha (2x field concentration)
[7] = saflufenacil 100 g ai/ha (4x field concentration)
[8] = flumioxazin 120 g ai/ha (2x field concentration)
[9] = flumioxazin 240 g ai/ha (4x field concentration)

B1: PPO-APB: nucleotide sequence encoding Arsenophonus protoporphyrinogen oxidase PPO-AP (SEQ ID NO:65), maize common codon usage bias (nucleic acid)
DNA: ATGTCCTACCTCTTGCTGTATTCGGGGAAAAATGGTCAAACCAAGAAGATCATCCTCAAAATAACTGAATATCTTCGTAAAGAAGGAAAGCAGTGCGACGTCAGAGATCTTAACATGGACAAGAATTTTAATTTAAGTGTGTACCAGAAGGTTCTTGTCGGAGCTTCAATTCGCTACGGCCACTTCAACCCCGCCGTGCTGAACTTCGCGCAGAATCATCAAAAAGAGCTGAACACAATTCAATCTGCCTTCTTTGGCGTCAACCTGATGGCGAGGAAGCAAGGGAAGGATACACCAGAAACCAATGTTTATGTTCGGAAGTTTTTGGCTAAAATTCCATGGCAGCCGACGATCACCAACGTATTTAGCGGTGCACTCAGATATCCTCAGTACAAGTGGCTGGATAGGATAATGATCCAGTTCATCATGAAGATTACTGGCGGCGAGACAAATAAGAACAAGGAGGTGGAGTACACGGACTGGGAGAAAGTGGAATACTTCGCCCGCGAGTTCAATGCACTAAAATGA
modifications: The nucleotide sequence of PPO-APB
tolerance to oxyfluorfen ([1]; maize, oxyfluorfen at four-fold field concentration (720 g ai/ha)): no tolerance | share of the plants that exhibited no tolerance ([1]; maize, oxyfluorfen at two-fold field concentration (360 g ai/ha)): about 50% | The grade of pesticide damage/plant: number of plants of grade 0 [1, 4]: 0 | The grade of pesticide damage/plant: number of plants of grade 1 [1, 4]: 0 | The grade of pesticide damage/plant: number of plants of grade 2 [1, 4]: 8 | The grade of pesticide damage/plant: number of plants of grade 3 [1, 4]: 8 | The grade of pesticide damage/plant: number of plants of grade 0 [1, 5]: 0 | The grade of pesticide damage/plant: number of plants of grade 1 [1, 5]: 0 | The grade of pesticide damage/plant: number of plants of grade 2 [1, 5]: 0 | The grade of pesticide damage/plant: number of plants of grade 3 [1, 5]: 16 | tolerance to saflufenacil ([2]; maize, saflufenacil at four-fold field concentration (100 g ai/ha)): basically no tolerance | share of the plants that exhibited no tolerance ([2]; maize, saflufenacil at two-fold field concentration (50 g ai/ha)): about 56 | The grade of pesticide damage/plant: number of plants of grade 0 [2, 6]: 0 | The grade of pesticide damage/plant: number of plants of grade 1 [2, 6]: 0 | The grade of pesticide damage/plant: number of plants of grade 2 [2, 6]: 7 | The grade of pesticide damage/plant: number of plants of grade 3 [2, 6]: 9 | The grade of pesticide damage/plant: number of plants of grade 0 [2, 7]: 0 | The grade of pesticide damage/plant: number of plants of grade 1 [2, 7]: 0 | The grade of pesticide damage/plant: number of plants of grade 2 [2, 7]: 1 | The grade of pesticide damage/plant: number of plants of grade 3 [2, 7]: 15 | The grade of pesticide damage/plant: number of plants of grade 0 [3, 8]: 0 | The grade of pesticide damage/plant: number of plants of grade 1 [3, 8]: 0 | The grade of pesticide damage/plant: number of plants of grade 2 [3, 8]: 3 | The grade of pesticide damage/plant: number of plants of grade 3 [3, 8]: 13 | The grade of pesticide damage/plant: number of plants of grade 0 [3, 9]: 0 | The grade of pesticide damage/plant: number of plants of grade 1 [3, 9]: 0 | The grade of pesticide damage/plant: number of plants of grade 2 [3, 9]: 0 | The grade of pesticide damage/plant: number of plants of grade 3 [3, 9]: 16 | tolerance to flumioxazin ([3]; maize, flumioxazin at different concentrations (120 and 240 g ai/ha)): basically no tolerance
